B1: 22025 (protein)
chain: MALPVTALLLPLALLLHAARPQLQLQESGPGLVKPSETLSLTCTVSGDSISSGDYYWGWIRQPPGKGLEWIGHIYYSGVTYYNPSLKSRVTISVDTSRNQFSLKLSSVTAADTAVYYCTREDSSNWRSRGQGTLVTVSSLEDKTHTCPPCPAGRADCGFTSESYQQGVLSATILYEILLGKATLYAVLVSALVLMAMVKRKDSRGRAKRSGSGATNFSLLKQAGDVEENPGPTSMDWIWRILFLVGAATGAHSFEVQLLESGGGLIQPGGSLRLSCAASGFTFSSHAMTWVRQAPGKGLEWVSAISGSGDYTHYADSVKGRFTISRDNSKNTVYLQMNSLRAEDSAVYYCAKDEDGGSLLGHRGQGTLVTVSSTRDKTHTCPPCPAIPEDTFFPSPESSCDVKLVEKSFETDTNLNFQNLSVIGFRILLLKVAGFNLLMTLRLWSSRAKRSGSGVKQTLNFDLLKLAGDVESNPGPSRGHMTEYKPTVRLATRDDVPRAVRTLAAAFADYPATRHTVDPDRHIERVTELQELFLTRVGLDIGKVWVADDGAAVAVWTTPESVEAGAVFAEIGPRMAELSGSRLAAQQQMEGLLAPHRPKEPAWFLATVGVSPDHQGKGLGSAVVLPGVEAAERAGVPAFLETSAPRNLPFYERLGFTVTADVEVPEGPRTWCMTRKPGA
B2: 22029 (protein)
chain: MALPVTALLLPLALLLHAARPQLQLQESGPGLVKPSETLSLTCTVSGDSISSGDYYWGWIRQPPGKGLEWIGHIYYSGVTYYNPSLKSRVTISVDTSRNQFSLKLSSVTAADTAVYYCTREDSSNWRSRGQGTLVTVSSLEDKTHTCPPCPAPIKTDVITMDPKDNCSKDANDTLLLQLTNTSAYYMYLLLLLKSVVYFAIITCCLLRRTAFCCNGEKSRAKRSGSGATNFSLLKQAGDVEENPGPTSMDWIWRILFLVGAATGAHSFEVQLVESGGGVVQPGRSLRLSCAASGFSFSGYGMHWVRQAPGKGLEWVAYISYDGSNKYYADSVKGRFTISRDNSKNTLYLQMNSLRAEDTAVYYCAKDPAWGLRLGESSSYDFDIWGQGTMVTVSSTRIQNPDPAVYQLRDSKSSDKSVCLFTDFDSQTNVSQSKDSDVYITDKCVLDMRSMDFKSNSAVAWSNKSDFACANAFNNSIIPEDTFFPSPESSCDVKLVEKSFETDTNLNFQNLSVIGFRILLLKVAGFNLLMTLRLWSSRAKRSGSGVKQTLNFDLLKLAGDVESNPGPSRGHMTEYKPTVRLATRDDVPRAVRTLAAAFADYPATRHTVDPDRHIERVTELQELFLTRVGLDIGKVWVADDGAAVAVWTTPESVEAGAVFAEIGPRMAELSGSRLAAQQQMEGLLAPHRPKEPAWFLATVGVSPDHQGKGLGSAVVLPGVEAAERAGVPAFLETSAPRNLPFYERLGFTVTADVEVPEGPRTWCMTRKPGA
B3: 22034 (protein)
chain: MALPVTALLLPLALLLHAARPQLQLQESGPGLVKPSETLSLTCTVSGDSISSGDYYWGWIRQPPGKGLEWIGHIYYSGVTYYNPSLKSRVTISVDTSRNQFSLKLSSVTAADTAVYYCTREDSSNWRSRGQGTLVTVSSLESGGGGSFEEVQLLESGGGLVQPGGSLRLSCAASGFTFSSYAMSWVRQAPGKGLEWVSSISGSGDYIYYADSVKGRFTISRDISKNTLYLQMNSLRAEDTAVYYCAKEGTGANSSLADYRGQGTLVTVSSTREQKLISEEDGSGIQNPDPAVYQLRDSKSSDKSVCLFTDFDSQTNVSQSKDSDVYITDKCVLDMRSMDFKSNSAVAWSNKSDFACANAFNNSIIPEDTFFPSSDVPCDVKLVEKSFETDTNLNFQNLSVIGFRILLLKVAGFNLLMTLRLWSSRAKRSGSGVKQTLNFDLLKLAGDVESNPGPSRGRMAKPLSQEESTLIERATATINSIPISEDYSVASAALSSDGRIFTGVNVYHFTGGPCAELVVLGTAAAAAAGNLTCIVAIGNENRGILSPCGRCRQVLLDLHPGIKAIVKDSDGQPTAVGIRELLPSGYVWEG
B4: 22041 (protein)
chain: MALPVTALLLPLALLLHAARPQLQLQESGPGLVKPSETLSLTCTVSGDSISSGDYYWGWIRQPPGKGLEWIGHIYYSGVTYYNPSLKSRVTISVDTSRNQFSLKLSSVTAADTAVYYCTREDSSNWRSRGQGTLVTVSSLEGSGRADCGFTSESYQQGVLSATILYEILLGKATLYAVLVSALVLMAMVKRKDSRGRAKRSGSGATNFSLLKQAGDVEENPGPTSMDWIWRILFLVGAATGAHSFEVQLLESGGGLIQPGGSLRLSCAASGFTFSSHAMTWVRQAPGKGLEWVSAISGSGDYTHYADSVKGRFTISRDNSKNTVYLQMNSLRAEDSAVYYCAKDEDGGSLLGHRGQGTLVTVSSTRDKTHTCPPCPAIPEDTFFPSPESSCDVKLVEKSFETDTNLNFQNLSVIGFRILLLKVAGFNLLMTLRLWSSRAKRSGSGVKQTLNFDLLKLAGDVESNPGPSRGHMTEYKPTVRLATRDDVPRAVRTLAAAFADYPATRHTVDPDRHIERVTELQELFLTRVGLDIGKVWVADDGAAVAVWTTPESVEAGAVFAEIGPRMAELSGSRLAAQQQMEGLLAPHRPKEPAWFLATVGVSPDHQGKGLGSAVVLPGVEAAERAGVPAFLETSAPRNLPFYERLGFTVTADVEVPEGPRTWCMTRKPGA
B5: 22048 (protein)
chain: MALPVTALLLPLALLLHAARPQVQLVESGGGLVQPGGSLRLSCAASGFTFTNHAMSWVRQAPGKGLELVSSISGNGRTTYYADSVKGRFTISRDISKNTLDLQMNSLRAEDTAVYYCAKDGGETLVDSRGQGTLVTVSSLEGQPKANPTVTLFPPSSEELQANKATLVCLISDFYPGAVTVAWKADGSPVKAGVETTKPSKQSNNKYAASSYLSLTPEQWKSHRSYSCQVTHEGSTVEKTVAPTECSPIKTDVITMDPKDNCSKDANDTLLLQLTNTSAYYMYLLLLLKSVVYFAIITCCLLRRTAFCCNGEKSRAKRSGSGATNFSLLKQAGDVEENPGPTSMDWIWRILFLVGAATGAHSFEEVQLLESGGGLVQPGGSLRLSCAASGFTFSSYAMSWVRQAPGKGLEWVSSISGSGDYIYYADSVKGRFTISRDISKNTLYLQMNSLRAEDTAVYYCAKEGTGANSSLADYRGQGTLVTVSSTRASTKGPSVFPLAPSSKSTSGGTAALGCLVKDYFPEPVTVSWNSGALTSGVHTFPAVLQSSGLYSLSSVVTVPSSSLGTQTYICNVNHKPSNTKVDKRVEPKSCEVKTDSTDHVKPKETENTKQPSKSCHKPKAIVHTEKVNMMSLTVLGLRMLFAKTVAVNFLLTAKLFFLRAKRSGSGVKQTLNFDLLKLAGDVESNPGPSRGHMTEYKPTVRLATRDDVPRAVRTLAAAFADYPATRHTVDPDRHIERVTELQELFLTRVGLDIGKVWVADDGAAVAVWTTPESVEAGAVFAEIGPRMAELSGSRLAAQQQMEGLLAPHRPKEPAWFLATVGVSPDHQGKGLGSAVVLPGVEAAERAGVPAFLETSAPRNLPFYERLGFTVTADVEVPEGPRTWCMTRKPGA
B6: 22050 (protein)
chain: B5 chain
B7: 22051 (protein)
chain: MALPVTALLLPLALLLHAARPQLQLQESGPGLVKPSETLSLTCTVSGDSISSGDYYWGWIRQPPGKGLEWIGHIYYSGVTYYNPSLKSRVTISVDTSRNQFSLKLSSVTAADTAVYYCTREDSSNWRSRGQGTLVTVSSLEDKTHTCPPCPAGRADCGFTSESYQQGVLSATILYEILLGKATLYAVLVSALVLMAMVKRKDSRGRAKRSGSGATNFSLLKQAGDVEENPGPTSMDWIWRILFLVGAATGAHSFEVQLLESGGGLIQPGGSLRLSCAASGFTFSSHAMTWVRQAPGKGLEWVSAISGSGDYTHYADSVKGRFTISRDNSKNTVYLQMNSLRAEDSAVYYCAKDEDGGSLLGHRGQGTLVTVSSTRDKTHTCPPCPAEVKTDSTDHVKPKETENTKQPSKSCHKPKAIVHTEKVNMMSLTVLGLRMLFAKTVAVNFLLTAKLFFL
B8: 22052 (protein)
chain: MALPVTALLLPLALLLHAARPQLQLQESGPGLVKPSETLSLTCTVSGDSISSGDYYWGWIRQPPGKGLEWIGHIYYSGVTYYNPSLKSRVTISVDTSRNQFSLKLSSVTAADTAVYYCTREDSSNWRSRGQGTLVTVSSLEDKTHTCPPCPAEVKTDSTDHVKPKETENTKQPSKSCHKPKAIVHTEKVNMMSLTVLGLRMLFAKTVAVNFLLTAKLFFLRAKRSGSGVKQTLNFDLLKLAGDVESNPGPTSMDWIWRILFLVGAATGAHSFEVQLLESGGGLIQPGGSLRLSCAASGFTFSSHAMTWVRQAPGKGLEWVSAISGSGDYTHYADSVKGRFTISRDNSKNTVYLQMNSLRAEDSAVYYCAKDEDGGSLLGHRGQGTLVTVSSTRDKTHTCPPCPAIPEDTFFPSPESSCDVKLVEKSFETDTNLNFQNLSVIGFRILLLKVAGFNLLMTLRLWSSRAKRSGSGVKQTLNFDLLKLAGDVESNPGPSRGHMTEYKPTVRLATRDDVPRAVRTLAAAFADYPATRHTVDPDRHIERVTELQELFLTRVGLDIGKVWVADDGAAVAVWTTPESVEAGAVFAEIGPRMAELSGSRLAAQQQMEGLLAPHRPKEPAWFLATVGVSPDHQGKGLGSAVVLPGVEAAERAGVPAFLETSAPRNLPFYERLGFTVTADVEVPEGPRTWCMTRKPGA

The molecules below were run on RAJI cells (assay: JNG assay, co-culture with RAJI cells). Details: JNG cells expressing construct, co-culture with Raji.
Format: cell-based
Outline: (§1)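 Read-out is NFAT-driven GFP measured by flow cytometry after ~4–18 h co-culture of SAR-expressing JNG cells with target cells (E:T about 1:2). SARs were introduced by lentiviral spinfection and selected with puromycin or blasticidin when possible; scores (+/- to 5+ ≈ 5–50% GFP+) are relative to parental JNG cells.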
For B1, the “NFAT-GFP ASSAY: Raji” value was “+/- (refer to approximately 5%, 10%, 20%, 30%, 40% and 50% GFP positive cells)”.
B2 was tested, and the “NFAT-GFP ASSAY: Raji” value was “+/- (refer to approximately 5%, 10%, 20%, 30%, 40% and 50% GFP positive cells)”.
In the case of B3, the “NFAT-GFP ASSAY: Raji” value is reported as “+/- (refer to approximately 5%, 10%, 20%, 30%, 40% and 50% GFP positive cells)”.
B4 was tested, and the “NFAT-GFP ASSAY: Raji” value was “+ (refer to approximately 5%, 10%, 20%, 30%, 40% and 50% GFP positive cells)”.
With B5 the “NFAT-GFP ASSAY: Raji” value was “+ (refer to approximately 5%, 10%, 20%, 30%, 40% and 50% GFP positive cells)”.
For B6, the “NFAT-GFP ASSAY: Raji” value was “+ (refer to approximately 5%, 10%, 20%, 30%, 40% and 50% GFP positive cells)”.
For B7, the “NFAT-GFP ASSAY: Raji” value was “+/- (refer to approximately 5%, 10%, 20%, 30%, 40% and 50% GFP positive cells)”.
For B8, the “NFAT-GFP ASSAY: Raji” value was “+/- (refer to approximately 5%, 10%, 20%, 30%, 40% and 50% GFP positive cells)”.

What follows are molecules tested on L363 cells (assay: JNG assay, co-culture with L363 cells). Details: co-culture with L363.
Format: cell-based
Outline: as §1
In the case of B1, the “NFAT-GFP ASSAY: L363” value is reported as “+ (refer to approximately 5%, 10%, 20%, 30%, 40% and 50% GFP positive cells)”.
For B2, the “NFAT-GFP ASSAY: L363” value was “+ (refer to approximately 5%, 10%, 20%, 30%, 40% and 50% GFP positive cells)”.
With B3 the “NFAT-GFP ASSAY: L363” value was “+/- (refer to approximately 5%, 10%, 20%, 30%, 40% and 50% GFP positive cells)”.
In the case of B4, the “NFAT-GFP ASSAY: L363” value is reported as “+ (refer to approximately 5%, 10%, 20%, 30%, 40% and 50% GFP positive cells)”.
For B5, the “NFAT-GFP ASSAY: L363” value was “+/- (refer to approximately 5%, 10%, 20%, 30%, 40% and 50% GFP positive cells)”.
In the case of B6, the “NFAT-GFP ASSAY: L363” value is reported as “+/- (refer to approximately 5%, 10%, 20%, 30%, 40% and 50% GFP positive cells)”.
With B7 the “NFAT-GFP ASSAY: L363” value was “+/- (refer to approximately 5%, 10%, 20%, 30%, 40% and 50% GFP positive cells)”.
For B8, the “NFAT-GFP ASSAY: L363” value was “+/- (refer to approximately 5%, 10%, 20%, 30%, 40% and 50% GFP positive cells)”.
